{
  "source": "patent US20220242973A1",
  "about": "(Molecular Partners, published 2022)",
  "binders": {"B1": {"name": "DARPin® protein #41 (designed binder)", "chain": "MRGSHHHHHHGSDLGKKLLEAARAGQDDEVRELLKAGADVNAKDYFSHTPLHLAARNGHLKIVEVLLKAGADVNAKDFAGKTPLHLAANEGHLEIVEVLLKAGADVNAQDIFGKTPADIAADAGHEDIAEVLQKAAGSPTPTPTTPTPTPTTPTPTPTGSDLGEKLLVAALYGQDDEVRILLAAGADVNAKDQWGLTPLHKAALQGHLEIVEVLLKAGADVNAKDERGHTPLHWAARFGHLEIVEVLLKAGADVNAQDQKGYTPADLAALWGHEDIAEVLQKAA", "notes": "Fusion of a serum albumin-specific and a FAP-specific ankyrin repeat domain"}},
  "key": {"[1]": {"target": "T1, Recombinant mouse FAP (mouse, UniProt P97321 26-761)", "T1 construct": "Bought soluble recombinant protein; also called mFAP", "T1 sequence (looked up)": "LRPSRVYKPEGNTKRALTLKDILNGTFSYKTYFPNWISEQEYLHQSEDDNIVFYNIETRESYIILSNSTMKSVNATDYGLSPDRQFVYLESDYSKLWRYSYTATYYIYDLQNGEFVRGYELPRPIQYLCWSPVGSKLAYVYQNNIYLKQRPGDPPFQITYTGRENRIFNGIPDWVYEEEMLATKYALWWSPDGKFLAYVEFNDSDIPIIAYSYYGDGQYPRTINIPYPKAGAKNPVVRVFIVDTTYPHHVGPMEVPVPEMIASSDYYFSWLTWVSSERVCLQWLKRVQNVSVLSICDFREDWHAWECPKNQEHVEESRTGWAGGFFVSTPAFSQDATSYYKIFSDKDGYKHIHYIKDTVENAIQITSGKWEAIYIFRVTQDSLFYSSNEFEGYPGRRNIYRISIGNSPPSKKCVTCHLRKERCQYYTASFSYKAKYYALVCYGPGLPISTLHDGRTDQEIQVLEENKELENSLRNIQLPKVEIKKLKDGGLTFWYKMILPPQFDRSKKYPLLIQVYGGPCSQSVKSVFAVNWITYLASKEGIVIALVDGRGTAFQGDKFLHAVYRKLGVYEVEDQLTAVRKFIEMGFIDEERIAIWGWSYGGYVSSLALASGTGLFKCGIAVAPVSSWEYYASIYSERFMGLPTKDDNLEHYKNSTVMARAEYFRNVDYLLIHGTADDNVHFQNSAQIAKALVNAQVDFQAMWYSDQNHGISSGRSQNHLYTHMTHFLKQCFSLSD", "assay": "SPR (ProteOn), mouse FAP immobilized on GLC chip", "experimental": "Briefly, mouse FAP was diluted in 10 mM Na-acetate pH5.3 buffer and covalently immobilized on a GLC chip (BioRad) to a level of around 2000 resonance units (RU). The interaction of DARPin® protein #41 and mFAP was then measured by injecting 200 μl running buffer (PBS, pH7.4 containing 0.005% Tween20®) containing serial dilutions of DARPin® protein #41 covering a concentration range between 50 nM and 3 nM (on-rate measurement), followed by a running buffer flow for 30 minutes at a constant flow rate of 100 μl/min (off-rate measurement). The regeneration was performed using 15 μl of 10 mM Glycine pH 2 followed by 15 μl of 124 mM H₃PO₄. The signals (i.e. resonance unit (RU) values) of the interspots and a reference injection (i.e. injection of running buffer only) were subtracted from the RU traces obtained after injection of DARPin® protein #41 (double-referencing). The binding of DARPin® protein #41 to hFAP was determined as described in Example 2.\nDissociation constants (KD) were calculated from the estimated on- and off-rates using standard procedures known to the person skilled in the art and are reported in Table 7. […] The dissociation constant of DARPin® protein #41 for binding to mouse FAP was determined to be 1.3 nM."}, "[2]": {"target": "T2, Human FAP expressed on the cell surface (WI38, CHO-FAP1.9, U87MG cells) (human, UniProt Q12884 1-760)", "T2 construct": "whole, on cells; Endogenous on WI38 and U87MG cells; from a human FAP cDNA (OriGene) in CHO-FAP1.9 cells; also called hFAP; FAP+ cells", "T2 sequence (looked up)": "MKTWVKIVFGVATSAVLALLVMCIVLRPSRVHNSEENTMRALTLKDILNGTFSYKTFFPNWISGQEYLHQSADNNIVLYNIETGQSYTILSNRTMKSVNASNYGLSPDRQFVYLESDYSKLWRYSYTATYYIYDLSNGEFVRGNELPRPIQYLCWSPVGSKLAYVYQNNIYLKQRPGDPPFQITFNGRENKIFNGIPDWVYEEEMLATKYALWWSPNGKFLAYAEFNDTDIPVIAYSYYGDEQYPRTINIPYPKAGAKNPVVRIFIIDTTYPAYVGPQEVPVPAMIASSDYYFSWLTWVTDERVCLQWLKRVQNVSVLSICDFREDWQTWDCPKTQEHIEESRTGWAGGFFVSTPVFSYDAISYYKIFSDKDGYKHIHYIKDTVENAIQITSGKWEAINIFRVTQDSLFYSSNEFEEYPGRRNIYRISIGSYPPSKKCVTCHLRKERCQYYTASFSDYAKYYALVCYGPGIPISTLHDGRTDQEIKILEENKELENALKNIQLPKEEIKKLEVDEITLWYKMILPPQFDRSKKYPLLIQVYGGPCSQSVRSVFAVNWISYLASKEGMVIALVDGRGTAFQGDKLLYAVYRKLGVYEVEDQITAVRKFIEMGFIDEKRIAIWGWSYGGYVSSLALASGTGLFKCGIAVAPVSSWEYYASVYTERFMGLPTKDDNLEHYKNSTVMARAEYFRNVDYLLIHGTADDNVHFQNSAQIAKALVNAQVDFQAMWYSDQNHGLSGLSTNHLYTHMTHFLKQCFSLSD", "assay": "FACS on U87MG cells (FAP on the cell surface), His-tag detected with Penta-His AF647 conjugate, median fluorescence intensity", "experimental": "In order to determine whether the fusion of a biologically active molecule to a FAP-specific ankyrin repeat domain affects the ability of the molecule to specifically recognize and bind to FAP expressed on the surface of cells, the binding of selected ankyrin repeat fusion proteins to FAP-expressing cells was tested. U87 MG cells and WI38 cells are known to express FAP on the cell surface and they were chosen as representative cells for these experiments. FAP expression on the U87 MG and WI38 cells was confirmed by FACS analysis (data not shown).\nUsing multi-well plates, 40,000 cells (either U87MG or WI38) were added per well in 50 μl of PBS. 50 μl of appropriate dilutions (2× dilution steps) of ankyrin repeat fusion protein (DARPin® protein #40 or DARPin® protein #41) was then added to the cells and incubated for 30 minutes on ice. After the ankyrin repeat fusion protein-binding reaction, cells were washed twice with PBS. Direct immunofluorescent detection of the His-tagged ankyrin repeat fusion proteins using Penta-His AF647 conjugate (QIAgen) and determination of live cells using LIVE/DEAD™ Fixable Green Dead Cell Stain Kit (ThermoFisher) were then performed together in one step. […] Acquisition and FACS analysis, including the determination of median fluorescence intensity (MFI), were done within 5 days after staining using an AttuneNxT instrument. […]"}},
  "data": [
    {"binder": "B1", "values": [
      {"measurement": "Kd", "setting": "[1]", "value": 1.3, "unit": "nM"},
      {"measurement": "EC50 (read off the curve)", "setting": "[2]", "value": "~2", "unit": "nM"}
    ]}
  ]
}
